The values that follow come from US20230086069A1.

Chain of human CD19 on cells (CD20+ B cells of human PBMC; Raji lymphoma cells) (human) (P15391 20-556): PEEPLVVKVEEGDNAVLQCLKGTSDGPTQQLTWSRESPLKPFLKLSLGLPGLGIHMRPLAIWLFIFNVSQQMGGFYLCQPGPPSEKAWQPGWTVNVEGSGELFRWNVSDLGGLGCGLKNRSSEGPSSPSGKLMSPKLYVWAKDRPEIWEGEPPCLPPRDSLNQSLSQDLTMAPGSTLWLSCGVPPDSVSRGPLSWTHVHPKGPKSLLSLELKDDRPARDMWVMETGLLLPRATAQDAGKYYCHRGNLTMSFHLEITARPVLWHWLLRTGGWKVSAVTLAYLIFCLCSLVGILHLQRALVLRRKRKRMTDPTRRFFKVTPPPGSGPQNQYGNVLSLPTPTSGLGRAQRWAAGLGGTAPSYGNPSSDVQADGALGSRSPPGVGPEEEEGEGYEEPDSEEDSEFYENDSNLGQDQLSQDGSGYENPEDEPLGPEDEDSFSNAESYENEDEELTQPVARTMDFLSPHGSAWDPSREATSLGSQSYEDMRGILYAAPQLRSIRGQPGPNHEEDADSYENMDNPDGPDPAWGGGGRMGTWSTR

The experiment has as its target human CD19 on cells (CD20+ B cells of human PBMC; Raji lymphoma cells) (human) (UniProt P15391). The experiment in a line: flow cytometry, dose response on human CD20+ lymphocytes.
Consider SJ25C (mouse anti-human CD19 antibody), for which the EC50 (commonly the midpoint of the concentration-response curve) came to 0.209 µg/mL.

In turn, 4G7 (mouse anti-human CD19 antibody) showed an EC50 of 0.549 µg/mL.

In the case of HIB19 (mouse anti-human CD19 antibody), the EC50 was found to be 0.0544 µg/mL.
